Measurements published in the DeepSol protein solubility set.

test: soluble on expression in E. coli; label from the status in PepcDB or PDB records

**Q.** Which “soluble on expression in E. coli” value does the source give for “MTNNITPIHEYKKYWAECFGTAPFLPTSRKEMDALGWDSCDIIIVTGDAYVDHPSFGMAIIGRLLEAQGFRVGIIAQPEWQNKNAFMQLGKPNLFFGITAGNMDSMINRYTADKKLRHDDAYTPNNEGGKRPDRATLVYSQRCREAYKEVPIVLGGIEASLRRVAHYDYWSDKVRRSVLFDAKADILLFGNAERALVEVAHRIANGEDISTMTNIRGTAVNLPAAPEGYTVIDSSRIEKPRKEAFVPKNPYEVETQCETKKDEPVAQPITIRPSRHDAATTAVRLPSFEKLRNDRILYAHASRVLHLETNPYSGRALLQSHGDRELWVNQAPIPLTTEEMDFVFGLPYARVPHPMYGKAKIPAYDMIKTS” here?
**A.** The value was “not soluble”.

**Q.** Which “soluble on expression in E. coli” value does the source give for “MTNNNQIGENKEQTIFDHKGNVIKTEDREIQIISKFEEPLIVVLGNVLSDEECDELIELSKSKLARSKVGSSRDVNDIRTSSGAFLDDNELTAKIEKRISSIMNVPASHGEGLHILNYEVDQQYKAHYDYFAEHSRSAANNRISTLVMYLNDVEEGGETFFPKLNLSVHPRKGMAVYFEYFYQDQSLNELTLHGGAPVTKGEKWIATQWVRRGTYK” here?
**A.** Its value is “soluble”.

**Q.** With “MTNPMQATRKIISITDQNVVHREDQVAREYPLTIYVNDREFATMVCTQADLEEMVIGFLGSEGLIRFYKQDVASLSIDESRGFAYVSLTKELPTEWQFYSKRMIGSCCGKSRQSFYFHNDAKTAKTSMSRTTMTPEQCFRLMEALQEQSVIFQQTGGVHNAALATPEQMLISRTDIGRHNALDKLYGYCLMNGVPVRDKVLLFSGRISSEVLLKAAKIGVGIMLSKSAPTELALTMAEELNITTAGFIRDGRMNIYTVPERILTPKKEVQLEHHHHHH” as the sequence, how does the “soluble on expression in E. coli” value read?
**A.** The value was “soluble”.

**Q.** Which “soluble on expression in E. coli” value does the source give for “MTPDFQIVTQRLQLRLITADEAEELVQCIRQSQTLHQWVDWCHALFSQQEAEQFIQATRLNWVKAEAYGFGVFERQTQTLVGMVAINEFYHTFNMASLGYWIGDRYQRQGYGKEALTALILFCFERLELTRLEIVCDPENVPSQALALRCGANREQLAPNRFLYAGEPKAGIVFSLIP” here?
**A.** The value was “soluble”.

**Q.** For “MTPFKELQKFIHWKERFLRDYEKIEKGELEKIREEVKEMLGEEPDERLLKALRSMYVGGMEHRVEDEEIRYWTNWGGVKTYETFNRFPLLSDIELAFVFWALGKLFVPLLMHETGVKSEPFKKLSREEQEEAVLDELDTLWETQLTLILQALQFLDLKSISSEKPSSEG”, which “soluble on expression in E. coli” value is on record?
**A.** Its value is “not soluble”.

**Q.** With “MTPNKEDYLKCIYEIGIDLHKITNKEIAARMQVSPPAVTEMIKRMKSENLILKDKECGYLLTDLGLKLVSELYRKHRLIEVFLVHHLDYTSDQIHEEAEVLEHTVSDLFVERLDKLLGFPKTCPHGGTIPAKGELLVEINNLPLADIKEAGAYRLTRVHDSFDILHYLDKHSLHIGDQLQVKQFDGFSNTFTILSNDEDLQVNMDIAKQLYVEKIN” as the sequence, how does the “soluble on expression in E. coli” value read?
**A.** The value was “not soluble”.

**Q.** For “MTQDDFFDLTPVEDFDSYDPLADTEDEEFDLEAPAESGMFLVEPGEFPTVDELASQAEALQQAPAAQRIATLFDHMERSRKILLGILEMCDGQVQPNELVISRIEKLKANNKSVYTPDNMCMMLVRAGALRRVTQDGTDYEDIEDTLEPKRVVIDGVEYLEPVQAPQICWLTTPEGSQVVAADQPRARLRELLENEPQYRHVFRTVLEMCAPDGGTTQKALSAALDNDPALMHPRMYAMRFAERLAQNDALEWRDNAWRITDIGSEGLDIIAELDAAEQADD”, which “soluble on expression in E. coli” value is on record?
**A.** The value was “not soluble”.

**Q.** Which “soluble on expression in E. coli” value does the source give for “MTQDELYMKEAIKEAKKAEEKGEVPIGAVLVINGEIIARAHNLRETEQRSIAHAEMLVIDEACKALGTWRLEGATLYVTLEPCPMCAGAVVLSRVEKVVFGAFDPKGGCSGTLMNLLQEERFNHQAEVVSGVLEEECGGMLSAFFRELRKKKKAARKNLSEMGHHHHHHSH” here?
**A.** Its value is “not soluble”.

**Q.** For “MTQEEMKHIDPSGNHTISHLCEAWKLSMRYQVKPSTFACYATIIQKHIRPSIGTVEMEEMNNEILSEFILDRQSRGLSANTMRLILFLLKSIIRAGERRGICPAEPLDFFLPKDRGYEMKLLSQDNRRKLLSWLAGCRTNFELGLLLSLSTGIRVGELCGMKWEDVDLEEGVLHIRRTVSRIRNTDQKNTAAKTVLYIGSPKTGTSQREIPLPDFMIPRLKEKKREAGCYLLTGRTGCMEPRGVQRRFKN”, which “soluble on expression in E. coli” value is on record?
**A.** The value was “not soluble”.

**Q.** Which “soluble on expression in E. coli” value does the source give for “MTQFETERLILRPMTAADHDALADMIFDPQVVAYLRYRRVQSPAAFEQLFTTHFLADTTTVFGIERRRDHQLIGFYEFHGSGATGELTYALSPAAWGHGYVAEAGNCLMHYGFETLNYETIEAHYASANPNSGRVMAKMGMQAAGELHTFTSDKGEVIHVMRYLLTKATWRQLSA” here?
**A.** Its value is “not soluble”.

**Q.** For “MTQKEISIIHPRPSSIVAALYTLRDLNVDVAILHGPPGCSFKHARLLEEDGIHVVTTGLDENGFVFGGHDRLVEVINKSIELFNPKILGVVGTCASMIIGEEMHDAVLEANPDIPVIEVEVHAGYHNNTRGVLFALESALDAGIIDRKEFERQEYLEHHHHHH”, which “soluble on expression in E. coli” value is on record?
**A.** The value was “soluble”.

**Q.** Which “soluble on expression in E. coli” value does the source give for “MTQRLQLTWYNKDKALIPTETGKYGYTWVDPSDPRYCETHTLIFDDYVQGAQTPKSDEFECSERADLQPQDDNLLILGESGDVLEALTRVPELAEKYVGKVKLVYIDPPFNTAQTFASYEDNLEHSIWLTMMRDRLIHMKKLLTNDGSIWVHLDDVEVHRMRVLMDEVFGADRFIATVAWEKDKGRRNDTDISGAHDLILIYAPSGRQWKNVRNLLPRLASQDARYQNPDNDPRGPWLQGDNGTAKSGTEKNRFPVTLPSGRVVTPKGRYWRFSPEGLAEARADGRVWFGKDGDSLPVIKRYLTDVQTGLVPRTWWNADEAGHNQEAKRDHLNKMFPEVENP” here?
**A.** Its value is “not soluble”.

**Q.** With “MTRFAEKVAIITGSSNGIGRATAVLFAREGAKVTITGRHAERLEETRQQILAAGVSEQNVNSVVADVTTDAGQDEILSTTLGKFGKLDILVNNAGAAIPDSQSKTGTAQSIESYDATLNLNLRSVIALTKKAVPHLSSTKGEIVNISSIASGLHATPDFPYYSIAKAAIDQYTRNTAIDLIQHGIRVNSISPGLVATGFGSAMGMPEETSKKFYSTMATMKECVPAGVMGQPQDIAEVIAFLADRKTSSYIIGHQLVVDGGSSLIMGLHCQDFAKLLH” as the sequence, how does the “soluble on expression in E. coli” value read?
**A.** The value was “soluble”.

**Q.** For “MTRIAIALAQDFADWEPALLAAAARSYLGVEIVHATPDGMPVTSMGGLKVTPDTSYDALDPVDIDALVIPGGLSWEKGTAADLGGLVKRFRDRDRLVAGICAAASALGGTGVLNDVAHTGNALASHKAYPAYRGEAHYRDQPRAVSDGGVVTAAGSAPVSFAVEILKSLGLFGPEAEAELQIFAAEHR”, which “soluble on expression in E. coli” value is on record?
**A.** The value was “soluble”.

**Q.** With “MTRIVVLGAGFAGLWAAIGAARKRDEIGAAGRDIEIRVVDRNPYHNIRVRNYEVDLSEVALPLGQLLDPIGVTHGLGEVEAIDPARREISLVTSDGEETLGYDRLVLAVGSEVTRPDIPGLADHAFDVDTYIAALRLEDHLVSLGRSVPSPGRSTVVVVGAGFTGIEVAAEMPDRLARAGITGSRCIILVDPNPTVGATIGAHARPVIETALSALDIETRLGARVASVEAAGVQLSSGEFIPAQTVIWCAGLRASRLAASLPGARDRLGRLLVDPFMRVADLPCVFAAGDVASSVVDGLHPTVMSCQFARPMGRFAGHNVVADLLGLPMLPLRIDWYVTVLDLGSWGALYTEGWDREVRTTGAAAKATKQTINRKRIYPPLNGSKDELFAAAAPTVQTPPPTYGARLEHHHHHH” as the sequence, how does the “soluble on expression in E. coli” value read?
**A.** The value was “soluble”.

**Q.** Which “soluble on expression in E. coli” value does the source give for “MTRPVTLSEPHFSQHTLNKYASLMAQGNGYLGLRASHEEDYTRQTRGMYLAGLYHRAGKGEINELVNLPDILGMEIAINGEVFSLSREAWQRELDFASGELRRSVVWRTSNGAGYTIASRRFVSADQLPLIALEITIMPLDADASVLISTGIDATQTNHGRQHLDETQVRVFGQHLMQGIYTTQDGRSDVAISCCCQVSGDVQQCYTAKERRLLQHTSTQLHAGETVTLQKLVWIDWRDDRQAALDEWGSVSLRQLEMCAQQSYDQHLAASTENWRQWWQKRRITVNGGDAHDQQALDYALYHLRIMTPAHGERSSIAAKGLTGEGYKGHVFWDTEVFLLPFHLFSDPTVARSLLRYRWHNLPGAQEKARRNGWQGALFPWESARSGEEETPEFAAINIRTGLRQKVASAQAEHHLVADIAWAVIQYWQTTGDESFIAHEGMALLLETAKFWISRAVRVNDRLEIHDVIGPDEYTEHVNNNAFTSYMVYYNVQQALSIARQFGCSDDAFIHRAEMFLKELRLPEIQPDGVLPQDDSFMTKPAINLAKYKAAAGKQTILLDYSRAEVNEMQILKQADVVMLNYMLPEQFSSASCLANLQFYEPRTIHDSSLSKAIHGIVAARCGLLTQSYQFWREGTEIDLGADPHSCDDGIHAAATGAIWLGAIQGFAGVSVRDGELHLNPALLEQWQQLSFPLFWQGCELQVTLDAQRIAIRTSAPVSLRLDGQLISVAEESVFCLGDFILPFNGTATTHQEDE” here?
**A.** Its value is “not soluble”.
